T1: RADIL, Q96JH8
T1 sequence (Q96JH8 971-1071, limits assumed, looked up): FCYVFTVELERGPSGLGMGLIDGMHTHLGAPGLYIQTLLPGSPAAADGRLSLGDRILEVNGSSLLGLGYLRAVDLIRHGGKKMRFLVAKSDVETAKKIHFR

T2: SNTB1, Q13884
T2 sequence (Q13884 107-205, limits assumed, looked up): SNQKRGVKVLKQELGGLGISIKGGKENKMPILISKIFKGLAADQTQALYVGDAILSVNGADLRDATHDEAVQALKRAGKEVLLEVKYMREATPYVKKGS

T3: PDZD2_2, O15018
T3 sequence (O15018 329-429, limits assumed, looked up): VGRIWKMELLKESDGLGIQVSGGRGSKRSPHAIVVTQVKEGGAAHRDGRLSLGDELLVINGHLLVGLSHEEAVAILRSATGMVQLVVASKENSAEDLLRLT

T4: SHANK1, Q9Y566
T4 sequence (Q9Y566 658-767, limits assumed, looked up): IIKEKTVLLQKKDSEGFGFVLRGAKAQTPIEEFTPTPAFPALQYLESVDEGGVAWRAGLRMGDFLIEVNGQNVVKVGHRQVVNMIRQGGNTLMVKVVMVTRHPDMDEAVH

T5: ARHGAP21, Q5T5U3
T5 sequence (Q5T5U3 45-169, limits assumed, looked up): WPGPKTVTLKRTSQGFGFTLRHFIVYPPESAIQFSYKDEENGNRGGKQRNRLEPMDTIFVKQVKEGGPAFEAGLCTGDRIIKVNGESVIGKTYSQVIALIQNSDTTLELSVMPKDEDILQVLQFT

T6: APBA2_2, Q99767
T6 sequence (Q99767 654-744, limits assumed, looked up): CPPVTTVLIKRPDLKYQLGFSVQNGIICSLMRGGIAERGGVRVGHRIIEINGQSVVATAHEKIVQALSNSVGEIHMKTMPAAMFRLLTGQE

B1: ABCA2, Q9BZC7 (peptide)
chain: QLSFNTDTLC
B2: TECPR2, O15040 (peptide)
chain: EDLEDEWEVI

Target: GIPC2, Q8TF65
Sequence (Q8TF65 112-203): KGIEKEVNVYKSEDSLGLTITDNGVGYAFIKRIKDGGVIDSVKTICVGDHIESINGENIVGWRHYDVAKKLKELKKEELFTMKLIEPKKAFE
Experiment: holdup assay
Parameters: key: below the threshold = too weak to quantify, mostly under pKd 3.1 to 4
Conditions: plain residues with an end cap or a label only (N-terminal biotin on a linker: ado-ado)

| Binder | pKd |
| --- | --- |
| B1 | below the threshold |
| B2 | below the threshold |

Target: DLG4_2, P78352
Sequence (P78352 155-259): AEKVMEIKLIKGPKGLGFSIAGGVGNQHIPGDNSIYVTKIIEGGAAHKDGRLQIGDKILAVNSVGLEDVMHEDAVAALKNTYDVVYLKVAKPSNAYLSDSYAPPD
Experiment: holdup assay
Parameters: key: below the threshold = too weak to quantify, mostly under pKd 3.1 to 4
Conditions: plain residues with an end cap or a label only (N-terminal biotin on a linker: ado-ado)

| Binder | pKd |
| --- | --- |
| B1 | 3.61 |
| B2 | below the threshold |

Target: T1, RADIL, Q96JH8
Experiment: holdup assay
Parameters: key: below the threshold = too weak to quantify, mostly under pKd 3.1 to 4
Conditions: plain residues with an end cap or a label only (N-terminal biotin on a linker: ado-ado)

| Binder | pKd |
| --- | --- |
| B1 | 3.49 |
| B2 | below the threshold |

Target: Inadl_6, Q8NI35
Sequence (Q8NI35 1058-1167): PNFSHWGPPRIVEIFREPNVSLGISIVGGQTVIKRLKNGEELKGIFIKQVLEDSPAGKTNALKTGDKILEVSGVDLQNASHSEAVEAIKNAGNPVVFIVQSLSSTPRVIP
Experiment: holdup assay
Parameters: key: below the threshold = too weak to quantify, mostly under pKd 3.1 to 4
Conditions: plain residues with an end cap or a label only (N-terminal biotin on a linker: ado-ado)

| Binder | pKd |
| --- | --- |
| B1 | below the threshold |
| B2 | below the threshold |

Target: MAST1, Q9Y2H9
Sequence (Q9Y2H9 962-1065): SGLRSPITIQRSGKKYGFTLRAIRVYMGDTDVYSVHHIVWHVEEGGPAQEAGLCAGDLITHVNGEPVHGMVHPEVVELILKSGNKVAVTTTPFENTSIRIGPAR
Experiment: holdup assay
Parameters: key: below the threshold = too weak to quantify, mostly under pKd 3.1 to 4
Conditions: plain residues with an end cap or a label only (N-terminal biotin on a linker: ado-ado)

| Binder | pKd |
| --- | --- |
| B1 | 4.16 |
| B2 | 3.68 |

Target: HTRA1, Q92743
Sequence (Q92743 360-477): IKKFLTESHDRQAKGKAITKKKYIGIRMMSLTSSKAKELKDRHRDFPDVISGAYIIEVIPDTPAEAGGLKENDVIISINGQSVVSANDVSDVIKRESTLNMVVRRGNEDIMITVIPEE
Experiment: holdup assay
Parameters: key: below the threshold = too weak to quantify, mostly under pKd 3.1 to 4
Conditions: plain residues with an end cap or a label only (N-terminal biotin on a linker: ado-ado)

| Binder | pKd |
| --- | --- |
| B1 | 4.11 |
| B2 | 5.29 |

Target: IL16_4, Q14005
Sequence (Q14005 1229-1329): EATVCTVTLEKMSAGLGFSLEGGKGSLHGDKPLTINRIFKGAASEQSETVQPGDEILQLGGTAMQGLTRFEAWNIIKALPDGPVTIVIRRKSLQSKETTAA
Experiment: holdup assay
Parameters: key: below the threshold = too weak to quantify, mostly under pKd 3.1 to 4
Conditions: plain residues with an end cap or a label only (N-terminal biotin on a linker: ado-ado)

| Binder | pKd |
| --- | --- |
| B1 | below the threshold |
| B2 | below the threshold |

Target: GORASP2, Q9H8Y8
Experiment: holdup assay
Parameters: key: below the threshold = too weak to quantify, mostly under pKd 3.1 to 4
Conditions: plain residues with an end cap or a label only (N-terminal biotin on a linker: ado-ado)

| Binder | pKd |
| --- | --- |
| B1 | below the threshold |
| B2 | 4.44 |

Target: LNX1_2, Q8TBB1
Sequence (Q8TBB1 371-470): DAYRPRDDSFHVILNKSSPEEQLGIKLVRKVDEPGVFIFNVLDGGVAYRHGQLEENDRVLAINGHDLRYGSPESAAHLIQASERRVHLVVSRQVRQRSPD
Experiment: holdup assay
Parameters: key: below the threshold = too weak to quantify, mostly under pKd 3.1 to 4
Conditions: plain residues with an end cap or a label only (N-terminal biotin on a linker: ado-ado)

| Binder | pKd |
| --- | --- |
| B1 | below the threshold |
| B2 | below the threshold |

Target: MAGI2_4, Q86UL8
Sequence (Q86UL8 772-865): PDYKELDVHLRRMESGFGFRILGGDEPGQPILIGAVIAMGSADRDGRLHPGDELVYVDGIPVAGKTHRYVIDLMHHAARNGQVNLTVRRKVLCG
Experiment: holdup assay
Parameters: key: below the threshold = too weak to quantify, mostly under pKd 3.1 to 4
Conditions: plain residues with an end cap or a label only (N-terminal biotin on a linker: ado-ado)

| Binder | pKd |
| --- | --- |
| B1 | 4.17 |
| B2 | below the threshold |

Target: FRMPD4, Q14CM0
Sequence (Q14CM0 67-160): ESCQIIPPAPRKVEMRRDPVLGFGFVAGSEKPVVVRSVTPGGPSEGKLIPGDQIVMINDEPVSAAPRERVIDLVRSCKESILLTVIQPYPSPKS
Experiment: holdup assay
Parameters: key: below the threshold = too weak to quantify, mostly under pKd 3.1 to 4
Conditions: plain residues with an end cap or a label only (N-terminal biotin on a linker: ado-ado)

| Binder | pKd |
| --- | --- |
| B1 | 4.03 |
| B2 | below the threshold |

Target: T2, SNTB1, Q13884
Experiment: holdup assay
Parameters: key: below the threshold = too weak to quantify, mostly under pKd 3.1 to 4
Conditions: plain residues with an end cap or a label only (N-terminal biotin on a linker: ado-ado)

| Binder | pKd |
| --- | --- |
| B1 | 3.59 |
| B2 | 3.68 |

Target: Inadl_10, Q8NI35
Sequence (Q8NI35 1673-1763): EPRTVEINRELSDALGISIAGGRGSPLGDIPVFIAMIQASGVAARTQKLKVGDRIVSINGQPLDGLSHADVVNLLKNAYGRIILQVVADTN
Experiment: holdup assay
Parameters: key: below the threshold = too weak to quantify, mostly under pKd 3.1 to 4
Conditions: plain residues with an end cap or a label only (N-terminal biotin on a linker: ado-ado)

| Binder | pKd |
| --- | --- |
| B1 | below the threshold |
| B2 | below the threshold |

Target: GRASP, Q7Z6J2
Sequence (Q7Z6J2 96-193): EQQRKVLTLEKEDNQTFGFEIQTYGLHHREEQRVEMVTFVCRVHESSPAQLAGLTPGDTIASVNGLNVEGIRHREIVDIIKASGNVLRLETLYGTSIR
Experiment: holdup assay
Parameters: key: below the threshold = too weak to quantify, mostly under pKd 3.1 to 4
Conditions: plain residues with an end cap or a label only (N-terminal biotin on a linker: ado-ado)

| Binder | pKd |
| --- | --- |
| B1 | below the threshold |
| B2 | below the threshold |

Target: GRIP2_5, Q9C0E4
Sequence (Q9C0E4 544-642): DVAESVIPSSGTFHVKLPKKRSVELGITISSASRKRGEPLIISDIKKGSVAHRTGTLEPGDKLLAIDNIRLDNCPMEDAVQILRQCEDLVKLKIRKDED
Experiment: holdup assay
Parameters: key: below the threshold = too weak to quantify, mostly under pKd 3.1 to 4
Conditions: plain residues with an end cap or a label only (N-terminal biotin on a linker: ado-ado)

| Binder | pKd |
| --- | --- |
| B1 | below the threshold |
| B2 | below the threshold |

Target: LAP2, Q96RT1
Sequence (Q96RT1 other isoform, or with tags, fused parts or gaps): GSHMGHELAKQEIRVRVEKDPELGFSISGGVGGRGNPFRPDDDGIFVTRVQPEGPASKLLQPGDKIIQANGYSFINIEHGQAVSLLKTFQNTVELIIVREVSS
Experiment: holdup assay
Parameters: key: below the threshold = too weak to quantify, mostly under pKd 3.1 to 4
Conditions: plain residues with an end cap or a label only (N-terminal biotin on a linker: ado-ado)

| Binder | pKd |
| --- | --- |
| B1 | below the threshold |
| B2 | below the threshold |

Target: T3, PDZD2_2, O15018
Experiment: holdup assay
Parameters: key: below the threshold = too weak to quantify, mostly under pKd 3.1 to 4
Conditions: plain residues with an end cap or a label only (N-terminal biotin on a linker: ado-ado)

| Binder | pKd |
| --- | --- |
| B1 | below the threshold |
| B2 | 3.84 |

Target: MAGI3_2, Q5TCQ9
Sequence (Q5TCQ9 398-503): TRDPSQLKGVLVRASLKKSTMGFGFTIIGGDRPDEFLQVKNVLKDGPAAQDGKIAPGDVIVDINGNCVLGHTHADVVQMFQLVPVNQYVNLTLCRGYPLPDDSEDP
Experiment: holdup assay
Parameters: key: below the threshold = too weak to quantify, mostly under pKd 3.1 to 4
Conditions: plain residues with an end cap or a label only (N-terminal biotin on a linker: ado-ado)

| Binder | pKd |
| --- | --- |
| B1 | below the threshold |
| B2 | below the threshold |

Target: IL16_1, Q14005
Sequence (Q14005 210-306): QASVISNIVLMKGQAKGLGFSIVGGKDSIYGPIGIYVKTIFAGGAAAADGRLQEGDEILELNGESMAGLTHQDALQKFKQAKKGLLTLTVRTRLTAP
Experiment: holdup assay
Parameters: key: below the threshold = too weak to quantify, mostly under pKd 3.1 to 4
Conditions: plain residues with an end cap or a label only (N-terminal biotin on a linker: ado-ado)

| Binder | pKd |
| --- | --- |
| B1 | 3.58 |
| B2 | below the threshold |

Target: Inadl_1, Q8NI35
Sequence (Q8NI35 113-229): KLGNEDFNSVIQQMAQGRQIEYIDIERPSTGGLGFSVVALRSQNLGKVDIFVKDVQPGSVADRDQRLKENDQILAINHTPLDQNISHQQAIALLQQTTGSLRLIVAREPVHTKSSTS
Experiment: holdup assay
Parameters: key: below the threshold = too weak to quantify, mostly under pKd 3.1 to 4
Conditions: plain residues with an end cap or a label only (N-terminal biotin on a linker: ado-ado)

| Binder | pKd |
| --- | --- |
| B1 | below the threshold |
| B2 | below the threshold |

Target: MAGI2_5, Q86UL8
Sequence (Q86UL8 915-1017): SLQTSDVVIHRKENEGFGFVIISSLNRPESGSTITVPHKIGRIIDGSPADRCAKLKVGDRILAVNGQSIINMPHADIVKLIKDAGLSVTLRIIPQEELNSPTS
Experiment: holdup assay
Parameters: key: below the threshold = too weak to quantify, mostly under pKd 3.1 to 4
Conditions: plain residues with an end cap or a label only (N-terminal biotin on a linker: ado-ado)

| Binder | pKd |
| --- | --- |
| B1 | 3.73 |
| B2 | below the threshold |

Target: LNX1_3, Q8TBB1
Sequence (Q8TBB1 500-596): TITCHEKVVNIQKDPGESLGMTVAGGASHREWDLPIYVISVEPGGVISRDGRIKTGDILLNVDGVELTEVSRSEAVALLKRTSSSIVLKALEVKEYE
Experiment: holdup assay
Parameters: key: below the threshold = too weak to quantify, mostly under pKd 3.1 to 4
Conditions: plain residues with an end cap or a label only (N-terminal biotin on a linker: ado-ado)

| Binder | pKd |
| --- | --- |
| B1 | below the threshold |
| B2 | below the threshold |

Target: DLG1_2, Q12959
Sequence (Q12959 314-412): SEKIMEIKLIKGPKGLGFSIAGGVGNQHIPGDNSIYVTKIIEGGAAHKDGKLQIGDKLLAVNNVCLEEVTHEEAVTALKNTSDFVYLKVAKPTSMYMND
Experiment: holdup assay
Parameters: key: below the threshold = too weak to quantify, mostly under pKd 3.1 to 4
Conditions: plain residues with an end cap or a label only (N-terminal biotin on a linker: ado-ado)

| Binder | pKd |
| --- | --- |
| B1 | 3.88 |
| B2 | below the threshold |

Target: DLG4_3, P78352
Sequence (P78352 306-403): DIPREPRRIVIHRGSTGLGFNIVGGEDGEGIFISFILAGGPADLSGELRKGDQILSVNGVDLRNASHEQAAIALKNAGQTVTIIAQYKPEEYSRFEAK
Experiment: holdup assay
Parameters: key: below the threshold = too weak to quantify, mostly under pKd 3.1 to 4
Conditions: plain residues with an end cap or a label only (N-terminal biotin on a linker: ado-ado)

| Binder | pKd |
| --- | --- |
| B1 | below the threshold |
| B2 | below the threshold |

Target: HTRA2, O43464
Sequence (O43464 355-458): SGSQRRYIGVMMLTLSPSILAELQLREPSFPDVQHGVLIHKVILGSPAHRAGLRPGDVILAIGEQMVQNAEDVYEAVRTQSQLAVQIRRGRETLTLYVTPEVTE
Experiment: holdup assay
Parameters: key: below the threshold = too weak to quantify, mostly under pKd 3.1 to 4
Conditions: plain residues with an end cap or a label only (N-terminal biotin on a linker: ado-ado)

| Binder | pKd |
| --- | --- |
| B1 | below the threshold |
| B2 | below the threshold |

Target: DLG4_1, P78352
Sequence (P78352 62-152): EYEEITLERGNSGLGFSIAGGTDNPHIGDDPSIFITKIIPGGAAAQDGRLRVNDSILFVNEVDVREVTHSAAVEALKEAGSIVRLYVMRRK
Experiment: holdup assay
Parameters: key: below the threshold = too weak to quantify, mostly under pKd 3.1 to 4
Conditions: plain residues with an end cap or a label only (N-terminal biotin on a linker: ado-ado)

| Binder | pKd |
| --- | --- |
| B1 | 3.7 |
| B2 | below the threshold |

Target: T4, SHANK1, Q9Y566
Experiment: holdup assay
Parameters: key: below the threshold = too weak to quantify, mostly under pKd 3.1 to 4
Conditions: plain residues with an end cap or a label only (N-terminal biotin on a linker: ado-ado)

| Binder | pKd |
| --- | --- |
| B1 | below the threshold |
| B2 | below the threshold |

Target: MAST2, Q6P0Q8
Sequence (Q6P0Q8 1099-1202): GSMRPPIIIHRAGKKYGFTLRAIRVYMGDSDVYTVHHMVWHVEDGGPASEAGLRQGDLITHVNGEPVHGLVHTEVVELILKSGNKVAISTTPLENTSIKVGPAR
Experiment: holdup assay
Parameters: key: below the threshold = too weak to quantify, mostly under pKd 3.1 to 4
Conditions: plain residues with an end cap or a label only (N-terminal biotin on a linker: ado-ado)

| Binder | pKd |
| --- | --- |
| B1 | 4.79 |
| B2 | 4.14 |

Target: GRID2IP_2, A4D2P6
Sequence (A4D2P6 272-370): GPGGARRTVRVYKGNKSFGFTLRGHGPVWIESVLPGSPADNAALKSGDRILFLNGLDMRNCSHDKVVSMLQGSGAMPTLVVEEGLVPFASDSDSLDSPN
Experiment: holdup assay
Parameters: key: below the threshold = too weak to quantify, mostly under pKd 3.1 to 4
Conditions: plain residues with an end cap or a label only (N-terminal biotin on a linker: ado-ado)

| Binder | pKd |
| --- | --- |
| B1 | below the threshold |
| B2 | below the threshold |

Target: PDLIM1, O00151
Sequence (O00151 1-87): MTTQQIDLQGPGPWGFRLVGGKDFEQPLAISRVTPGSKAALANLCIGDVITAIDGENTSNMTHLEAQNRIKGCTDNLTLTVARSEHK
Experiment: holdup assay
Parameters: key: below the threshold = too weak to quantify, mostly under pKd 3.1 to 4
Conditions: plain residues with an end cap or a label only (N-terminal biotin on a linker: ado-ado)

| Binder | pKd |
| --- | --- |
| B1 | below the threshold |
| B2 | below the threshold |

Target: T5, ARHGAP21, Q5T5U3
Experiment: holdup assay
Parameters: key: below the threshold = too weak to quantify, mostly under pKd 3.1 to 4
Conditions: plain residues with an end cap or a label only (N-terminal biotin on a linker: ado-ado)

| Binder | pKd |
| --- | --- |
| B1 | below the threshold |
| B2 | below the threshold |

Target: DLG2_3, Q15700
Experiment: holdup assay
Parameters: key: below the threshold = too weak to quantify, mostly under pKd 3.1 to 4
Conditions: plain residues with an end cap or a label only (N-terminal biotin on a linker: ado-ado)

| Binder | pKd |
| --- | --- |
| B1 | 3.73 |
| B2 | 3.77 |

Target: T6, APBA2_2, Q99767
Experiment: holdup assay
Parameters: key: below the threshold = too weak to quantify, mostly under pKd 3.1 to 4
Conditions: plain residues with an end cap or a label only (N-terminal biotin on a linker: ado-ado)

| Binder | pKd |
| --- | --- |
| B1 | below the threshold |
| B2 | below the threshold |
